The values below are quoted from earlier work in PMC6989705 (EJNMMI Radiopharmacy and Chemistry, 2020).

The conditions of this data set: endogenous ligand; ref Rai et al. [2015]; cited from earlier work. The procedure:
Somatostatin receptors (SSTRs) are validated biomarkers in the management of NETs. The short biological half-life of the endogenous ligand somatostatin (< 5 min) prevents pharmacological use of this peptide (Rai et al. [2015]). Therefore, synthetic somatostatin analogs that are more resistant to peptidases, such as octreotide, were developed. Using radiolabeled somatostatin analogs, the presence of SSTRs on tumor cells may be exploited for molecular imaging and targeted radionuclide therapy (TRNT) for the treatment of unresectable neuroendocrine tumors (Pauwels et al. [2018]; Deroose et al. [2 ...

Where only a bound is given, the exact number is not on record here.

With somatostatin, the biological half-life is reported as less than 5 min.
